Results on 48 molecules are retold here after patent US20030032157A1, “Polypeptides interactive with Bcl-XL” (priority 2001, published 2003).

The chains are these.
B1: clone w75 (peptide)
chain: RTLQPRLLQNQQQHLPALPIWFLLQWLRLHPL
notes: mRNA display clone from a hypothetical or unknown polypeptide
B2: SEQ ID NO 16 (peptide)
chain: TYWNLLPPKRPIKEVLTDIFAKVLEKGWVDSRS
notes: mRNA display clone from a known polypeptide
B3: SEQ ID NO 14 (peptide)
chain: TGTGAPRFIKEVQELNSALHQSDLIDIYRTLHP
notes: as for B2
B4: SEQ ID NO 46 (peptide)
chain: AAMLLDRRGTECDLWINEMSLLHKIVQDVYGTPHPPHS
notes: as for B1
B5: SEQ ID NO 38 (peptide)
chain: MAVIINELSQRDSCGPLKISLNNKILVYGNLFSSFTP
notes: as for B1
B6: SEQ ID NO 28 (peptide)
chain: TLYLKLTALAVTFLGLLTALDLNYPT
notes: as for B2
B7: SEQ ID NO 23 (peptide)
chain: GSSKDLAKHIQVVCDGMDLTPKIHDLKPQC
notes: as for B2
B8: SEQ ID NO 27 (peptide)
chain: LRLNTTVWPTIITPILLTLFLITNRLITTR
notes: as for B2
B9: cDNA FLJ20617 cluster polypeptide (peptide)
chain: GSLTHHINNIKPSSTR
notes: Selected clone translated from the incorrect reading frame; not further characterized
B10: SEQ ID NO 15 (peptide)
chain: SNELTRAVEELHKLLKEARE
notes: as for B2
B11: SEQ ID NO 47 (peptide)
chain: PWQYKPIADLYRGRESRPSAPR
notes: as for B1
B12: SEQ ID NO 13 (peptide)
chain: RGAVFSQDKDVVQEATKVLRNAADNFYINDR
notes: as for B2
B13: transforming growth factor cluster polypeptide (peptide)
chain: FVRSVGWRLQNIGDDMDHAICGHDVRLG
notes: Selected clone with insert in reversed orientation relative to the parent mRNA; not further characterized
B14: SEQ ID NO 42 (peptide)
chain: GVSEAEGTFPLSTFLLGIASRLRSVA
notes: as for B1
B15: SEQ ID NO 22 (peptide)
chain: ARGDFAQAAQQLWLALRALGRPLPTSH
notes: as for B2
B16: SEQ ID NO 21 (peptide)
chain: WERIEERLAYIADHLGFSWTELARAL
notes: as for B2
B17: lysosomal pepstatin insensitive protease cluster polypeptide (peptide)
chain: ATWMKTLQGLLDRIQAFPSSPH
notes: Selected clone derived from the 3' UTR of the parent mRNA; not further characterized
B18: SEQ ID NO 50 (peptide)
chain: GAMEREWAMFLRAASSRIRGGV
notes: as for B1
B19: K-ras oncogene cluster polypeptide (peptide)
chain: MDTIKGFDLITNFQVVADALNISLLPNPLATA
notes: as for B17
B20: SEQ ID NO 34 (peptide)
chain: TSTLPHIRRTR
notes: as for B1
B21: arsenate resistance protein cluster polypeptide (peptide)
chain: AGTQPLILAQFMRVGGDELLHFLLW
notes: as for B13
B22: SEQ ID NO 43 (peptide)
chain: RAPRFIKQILLDLKREIDFNVRLVEYFNPLS
notes: as for B1
B23: SEQ ID NO 40 (peptide)
chain: SSQALRIHQWLHLFSDFTST
notes: as for B1
B24: SEQ ID NO 48 (peptide)
chain: LFSVLLRYLADNFLPGGS
notes: as for B1
B25: SEQ ID NO 19 (peptide)
chain: GLREESEEYMAAADEYNRLKQVKQPA
notes: as for B2
B26: SEQ ID NO 17 (peptide)
chain: LFTILLTLWTMRCSSTPSG
notes: as for B2
B27: SEQ ID NO 26 (peptide)
chain: ANLLLLMVPILIAMAFLMLTERKILGYIQPR
notes: as for B2
B28: SEQ ID NO 18 (peptide)
chain: AGEDMEISVKELRTILNRIISKHKDLRT
notes: as for B2
B29: UDP glucoronosyl transferase 2B4 precursor cluster polypeptide (peptide)
chain: VSCWPSYLKYPLSTASASLLATQLKSIA
notes: as for B9
B30: SEQ ID NO 49 (peptide)
chain: DWQVLLGKLLWKIDNPGI
notes: as for B1
B31: SEQ ID NO 24 (peptide)
chain: GFLAAEQDIREEIRKVVQSLEQTAREVLTLLQG
notes: as for B2
B32: SEQ ID NO 45 (peptide)
chain: LALAYYSSRQYASALKHIAEIIERGIRQH
notes: as for B1
B33: SEQ ID NO 39 (peptide)
chain: GLAKKSKRNPANLTPP
notes: as for B1
B34: SEQ ID NO 36 (peptide)
chain: ILTSPWTTSSGLWPRLQKAAEAFKQLNQP
notes: as for B1
B35: L-plastin cluster polypeptide (peptide)
chain: SGLRKPTCGSSQR
notes: as for B17
B36: MYBPC3 cluster polypeptide (peptide)
chain: EANRKQPKPNNSSTAYYNFTGVSILPSYKP
notes: as for B17

T1 sequence (P08515 1-218, tags or fused parts left off): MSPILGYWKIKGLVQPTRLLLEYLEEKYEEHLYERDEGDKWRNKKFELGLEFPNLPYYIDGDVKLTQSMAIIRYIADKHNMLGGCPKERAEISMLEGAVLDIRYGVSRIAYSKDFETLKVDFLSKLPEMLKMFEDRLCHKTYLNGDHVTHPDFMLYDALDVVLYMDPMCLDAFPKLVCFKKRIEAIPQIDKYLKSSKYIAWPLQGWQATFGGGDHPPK

The experiment addresses T1, human Bcl-XL-GST fusion protein (human, UniProt P08515 1-218 = GST; Q07817 1-211).
T1 construct: Made in E. coli, immobilized on glutathione Sepharose beads; whole entry named; also called Bcl-XL-glutathione S-transferase (GST) fusion protein; GST-BCL-XL
The experiment can be described thus: mRNA display selection on immobilized Bcl-XL-GST. The procedure:
Detection of a polypeptide binding to a Bcl-XL-glutathione S-transferase (GST) fusion protein was carried out as follows. Twenty microliters of glutathione Sepharose 4B slurry (AP Biotech) was aliquoted to a microcentrifuge tube and washed with PBS. The Bcl-XL-GST fusion protein (60 μg), prepared as describe above, was added and allowed to bind to the Sepharose beads for 1 hr at 4° C. The beads were then re-washed in selection buffer (50 mM Tris-HCL pH 7.5, 150 mM KCl, 0.05% Triton X-100, 0.5 mg/ml BSA, and 0.1 mg/ml salmon sperm DNA). The Bcl-XL-GST beads were resuspended in 100 μl of selection buffer (approximately 11.5 μM Bcl-XL) and ³⁵S-labeled mRNA display construct or free peptide was added (approximately 10-60 nM) and incubated on a rotator for 1 hr at 4° C. The reaction was then transferred to a microcentrifuge column (BioRad) and unbound mRNA display constructs or free peptides were removed by a 10 sec spin at 1,000 rpm. The Sepharose beads were then washed three times with 500 μl of selection buffer. The extent of binding between the Bcl-XL-GST fusion protein and the mRNA display constructs or free peptides was determined by scintillation counting each fraction, including the recovered beads.
A human Bcl-XL-GST fusion protein was immobilized on Sepharose beads as described above for the binding assay and incubated with the mRNA display library. For the first round of selection, the input was approximately 0.06 pmol of each of the four source labeled libraries from human tissues (kidney, liver, bone marrow, and brain), which were mixed prior to selection. For subsequent rounds of selection, the input of each of the four source labeled libraries ranged from 0.25 to 0.92 pmol in total. After washing the beads of any unbound nucleic acid-protein fusion library members, the cDNA strand of the bound fusions were recovered in three elutions with 100 μl of 0.1N KOH. Eluates were subsequently neutralized by the addition of 2 μl of 1N Tris-HCL pH 7 and 8 μl of 1N HCL. A small scale PCR optimization was performed with the eluate to determine the number of cycles required to produce a strong signal without overamplification (typically 18-28 cycles). The library was then regenerated by PCR using the remainder of the eluate.
Consider QRRGNEFQLRDLADAWDLSSRSRQRGWQMPNCRSRRGPG [SEQ ID NO 62], for which the binding result is reported as “binds”. In the case of EDLESVLIRLINWAKGSPIP [SEQ ID NO 56], the binding result was “binds”. Take B1: the binding result is “binds”. Take B2: the binding result was “binds”. As for B3, the entry is “binds”; as for B4, “binds”. For B5 the value was “binds”; for B6, “binds”; for B7, “binds”. For the molecule B8, the binding result was “binds”.

CREQAELTGLRLASLGLKFNKIVHSSMTRAIET [SEQ ID NO 53]: the binding result is given as “binds”. For B9 the value was “binds”. Regarding B10, the binding result is given as “binds”. Regarding B11, the binding result was “binds”.

On to B12, for which the binding result is reported as “binds”. As to B13, the binding result is on record as “binds”. For the molecule B14, the binding result was “binds”.

B15: the binding result is listed as “binds”. With GQGTLWGSGMEAWLATVLKALPWHPTYQLEP [SEQ ID NO 59], the binding result was “binds”.

GTRISDMLKLIADTWQRNCCPA [SEQ ID NO 54]: the binding result is on record as “binds”.

On to ASMAPVGRDAETLQKQKETIKAFLKKLEALMASNDNANKT [SEQ ID NO 52], for which the binding result is on record as “binds”.

Take B16: the binding result is “binds”. For B17 the value was “binds”; for B18, “binds”.

For B19, the binding result is listed as “binds”. As for B20, the entry is “binds”.

Turning to B21, the binding result is recorded as “binds”. Consider B22, for which the binding result is “binds”. As to B23, the binding result is on record as “binds”. B24: the binding result was “binds”. As to B25, the binding result is recorded as “binds”.

Turning to HAVVARLLHIGAIMFQRLDFIEQLSAPPA [SEQ ID NO 58], the binding result is on record as “binds”. In the case of B26, the binding result was “binds”.

As to B27, the binding result was “binds”. For VVDVPDFIVWLEEAVSDLHRAL [SEQ ID NO 61] the value was “binds”; for B28, “binds”; for B29, “binds”. For EQASVKYVILDMYRALLTLMNTSTAT [SEQ ID NO 55], the binding result is given as “binds”. Take RPVSFCGAVWTLNRAIGRHFVRGSR [SEQ ID NO 57]: the binding result was “binds”. With B30, the binding result was “binds”. For B31, the binding result is “binds”. On to VHNFGRHWGLPLSFLLNYPLFLSP [SEQ ID NO 51], for which the binding result is recorded as “binds”.

Take IAQATKATIDKWNCIKLKIFYTSKKEAS [SEQ ID NO 60]: the binding result was “binds”. For B32 the value was “binds”. With B33, the binding result is given as “binds”. Turning to B34, the binding result is “binds”. For the molecule B35, the binding result is “binds”. As for B36, the entry is “binds”.
